Source: US20140087995A1 (published 2014)
Numbered stars: 1 amine (or outer) side, 2 acyl side, 3 side chain; on linkers, the order of the positions; unused ones are H or OH. Bridge positions count the residues as written; N and C are the ends. * marks the point of attachment. C20 diacid = O=C(O)CCCCCCCCCCCCCCCCCCC(=O)*; γGlu = O=C(O)[C@H](CCC(=O)[*:2])N[*:1]

T1: human calcitonin receptor (human, UniProt P30988 25-474)
T1 construct: whole, on cells; Membranes of a BHK tk'ts 13 cell line stably transfected with the human calcitonin receptor; also called hCTR; hCT
T1 sequence (looked up): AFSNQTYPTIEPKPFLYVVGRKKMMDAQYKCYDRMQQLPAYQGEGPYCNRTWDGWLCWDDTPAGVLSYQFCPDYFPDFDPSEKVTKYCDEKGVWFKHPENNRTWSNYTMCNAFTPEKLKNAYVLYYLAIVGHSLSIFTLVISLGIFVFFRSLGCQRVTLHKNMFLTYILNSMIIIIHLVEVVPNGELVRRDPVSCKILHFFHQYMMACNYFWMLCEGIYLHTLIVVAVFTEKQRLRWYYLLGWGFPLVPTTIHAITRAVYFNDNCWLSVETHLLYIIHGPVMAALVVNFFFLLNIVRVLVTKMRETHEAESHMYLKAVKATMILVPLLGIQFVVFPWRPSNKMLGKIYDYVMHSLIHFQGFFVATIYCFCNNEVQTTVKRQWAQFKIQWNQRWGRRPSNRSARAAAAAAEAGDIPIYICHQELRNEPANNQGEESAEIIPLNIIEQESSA

T2: rat calcitonin receptor (rat, UniProt P32214 25-516)
T2 construct: whole, on cells; Membranes of BHK tk'ts 13 cells transiently transfected with the rat calcitonin receptor; also called rCTR; rat calcitonin (a) receptor
T2 sequence (looked up): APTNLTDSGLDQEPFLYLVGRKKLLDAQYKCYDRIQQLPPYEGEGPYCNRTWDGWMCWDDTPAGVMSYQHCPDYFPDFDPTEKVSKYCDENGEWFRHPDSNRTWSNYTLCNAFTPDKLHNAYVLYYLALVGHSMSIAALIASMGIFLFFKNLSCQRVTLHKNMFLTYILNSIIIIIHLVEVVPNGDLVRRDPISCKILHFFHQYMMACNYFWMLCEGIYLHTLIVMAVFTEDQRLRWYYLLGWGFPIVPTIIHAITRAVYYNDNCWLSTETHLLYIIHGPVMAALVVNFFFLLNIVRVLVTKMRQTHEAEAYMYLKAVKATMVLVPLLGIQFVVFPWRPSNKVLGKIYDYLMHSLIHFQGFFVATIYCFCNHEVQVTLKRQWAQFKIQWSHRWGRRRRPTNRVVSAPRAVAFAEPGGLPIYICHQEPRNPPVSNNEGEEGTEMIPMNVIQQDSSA

T3: rat amylin receptor (rat calcitonin receptor + rat RAMP 3) (rat, UniProt P32214 25-516; Q9JJ73 23-147)
T3 construct: whole, on cells; Membranes of BHK tk'ts 13 cells transiently transfected with the rat calcitonin receptor and rat RAMP 3; also called rAmylin-R; rat amylin 3(a) receptor
T3 sequence (looked up) 1: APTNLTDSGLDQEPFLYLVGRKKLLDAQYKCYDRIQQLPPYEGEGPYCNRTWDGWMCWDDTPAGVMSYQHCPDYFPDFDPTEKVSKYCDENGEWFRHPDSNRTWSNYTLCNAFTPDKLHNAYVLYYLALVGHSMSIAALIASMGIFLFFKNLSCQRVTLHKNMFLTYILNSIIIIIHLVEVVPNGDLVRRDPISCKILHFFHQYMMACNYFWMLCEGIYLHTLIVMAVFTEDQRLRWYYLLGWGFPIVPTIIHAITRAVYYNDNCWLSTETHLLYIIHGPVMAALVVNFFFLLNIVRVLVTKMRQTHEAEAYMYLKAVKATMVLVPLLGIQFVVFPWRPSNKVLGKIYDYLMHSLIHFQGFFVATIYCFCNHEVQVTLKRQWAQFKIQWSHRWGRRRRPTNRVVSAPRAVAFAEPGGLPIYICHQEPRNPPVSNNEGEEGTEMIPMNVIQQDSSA
T3 sequence (looked up) 2: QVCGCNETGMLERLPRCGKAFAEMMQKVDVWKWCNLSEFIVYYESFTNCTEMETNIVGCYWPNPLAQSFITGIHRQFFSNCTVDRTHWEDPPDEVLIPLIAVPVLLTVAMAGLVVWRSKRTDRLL


Key:
[1] = target: T1, human calcitonin receptor; assay: IC50 at hCTR divided by IC50 at hAmylin-R (reference)
Protocol: The resulting pellet was resuspended, homogenized and centrifuged (20.000 rpm, 15 min) in a buffer containing 20 mM Na-HEPES and 0.1 mM EDTA (pH 7.4, buffer 2). The resulting pellet was resuspended in buffer 2 and protein concentration was measured (BCA protein Assay, Pierce). The homogenate was kept cold during the whole procedure. The membranes were kept at −80° C. until use. The assay was performed in a 384 well Optiplate (PerkinElmer) in a total volume of 40 ul. Membranes were mixed with SPA beads. Final concentration of membranes 35 ng/μL final and SPA beads was 0.05 mg/well. Test-compounds were dissolved in DMSO and further diluted in assay buffer (50 mM Hepes, pH 7.4, 1 mM CaCl2, 5 mM MgCl₂, 0.1% OA and 0.02% Tween20). […] The final mixture was incubated with shaking at 400 rpm for 120 min at 25° C. prior to centrifugation (1500 rpm, 10 min). Samples were analyzed on TopCounter™ (Packard). The IC₅₀ was calculated using (one site binding competition analysis) GraphPad Prism5 as a measure of receptor affinity.
Membranes were prepared in the following way; the cells were rinsed with PBS and incubated with Versene for approximately 5 min before harvesting. The cells were flushed with PBS and the cell-suspension was centrifuged for 5 min at 1000 rpm. Cells were homogenized (Ultrathurrax) in a buffer containing 20 mM Na-HEPES and 10 mM EDTA (pH 7.4) and centrifuged at 20.000 rpm for 15 min. The resulting pellet was resuspended, homogenized and centrifuged (20.000 rpm, 15 min) in a buffer containing 20 mM Na-HEPES and 0.1 mM EDTA (pH 7.4, buffer 2). The resulting pellet was resuspended in buffer 2 and protein concentration was measured (BCA protein Assay, Pierce). The homogenate was kept cold during the whole procedure. The membranes were kept at −80° C. until use. Assay was performed in a 384 well Optiplate (PerkinElmer) in a total volume of 40 ul. Membranes were mixed with SPA beads.

rat calcitonin receptor [2] = target: T2, rat calcitonin receptor; assay: IC50 at rCTR divided by IC50 at rAmylin-R (reference)
rat calcitonin receptor [3] = target: T2, rat calcitonin receptor; assay: SPA competition vs 125I-calcitonin, membranes with rat CTR (Assay VIII)
[4] = target: T3, rat amylin receptor (rat calcitonin …); assay: SPA competition vs 125I-rat amylin, membranes with rat CTR + rat RAMP3 (Assay VI)
Protocol: The binding assay was performed using scintillation proximity assay (SPA) beads (RPNQ0001) from PerkinElmer and cell membranes from the Amylin 3(a)/CRE-luc cells (as described in Assay (II)) were used. Membranes were prepared in the following way; the cells were rinsed with PBS and incubated with Versene for approximately 5 min before harvesting. The cells were flushed with PBS and the cell-suspension was centrifuged for 5 min at 1000 rpm. Cells were homogenized (ultrathurrax) in a buffer containing 20 mM Na-HEPES and 10 mM EDTA (pH 7.4) and centrifuged at 20.000 rpm for 15 min. The resulting pellet was resuspended, homogenized and centrifuged (20.000 rpm, 15 min) in a buffer containing 20 mM Na-HEPES and 0.1 mM EDTA (pH 7.4, buffer 2). The resulting pellet was resuspended in buffer 2 and protein concentration was measured (BCA protein Assay, Pierce). The homogenate was kept cold during the whole procedure. The membranes were kept at −80° C. until use. The assay was performed in a 384 well Optiplate (PerkinElmer) in a total volume of 40 ul. Membranes were mixed with SPA beads. Final concentration of membranes 35 ng/μL final and SPA beads was 0.05 mg/well. Test-compounds were dissolved in DMSO and further diluted in assay buffer (50 mM Hepes, pH 7.4, 1 mM CaCl2, 5 mM MgCl₂, 0.1% OA and 0.02% Tween20). […] The final mixture was incubated with shaking at 400 rpm for 120 min at 25° C. prior to centrifugation (1500 rpm, 10 min). Samples were analyzed on TopCounter™ (Packard). The IC₅₀ was calculated using (one site binding competition analysis) GraphPad Prism5 as a measure of receptor affinity.
Cells were grown in DMEM with 10% FBS and 1% Pen/Strep. Approximately 48 hours after transfection, the cells were harvested and membranes were prepared.

Binder	Ratio hCT/hAmylin binding [1]	Ratio rCT/rAmylin binding (rat calcitonin receptor [2])	IC50 (rat calcitonin receptor [3])	IC50 [4]
KCNTATCATQRLAEFLRHSSPNFGAIPSSTNVGSNTY (C20 diacid-gGlu-2xOEG on the alpha amino group of the N-terminal residue (Lys 1); disulfide bridge Cys2-Cys7; C-terminal amide, modifications are with respect to human amylin; also called compound 19)	36.7	93.6	95.6 nM	1.02 nM
KCNTATCATQRLANFLRHSSPNFGAIPSSTNVGHNTY (C20 diacid-gGlu on the alpha amino group of the N-terminal residue (Lys 1); disulfide bridge Cys2-Cys7; C-terminal amide, modifications are with respect to human amylin; also called compound 40) [N^α1-[(4S)-4-carboxy-4-(19-carboxynonadecanoylamino)butanoyl]-[Arg17,Pro21,Pro27,His34]-h-amylin]	31.1	46.2	69.2 nM	1.5 nM
KCNTATCATQRLANFLRHSSPNFGAIPSSTNVGSKTY (C20 diacid-gGlu on the alpha amino group of the N-terminal residue (Lys 1); disulfide bridge Cys2-Cys7; C-terminal amide, modifications are with respect to human amylin; also called compound 34) [N^α1-[(4S)-4-carboxy-4-(19-carboxynonadecanoylamino)butanoyl]-[Arg17,Pro21,Pro27,Lys35]-h-amylin]	64.4	52	89.2 nM	1.72 nM
{C20 diacid-γGlu}-KCNTATCATQRLANFLRHSSPNFGAIPSSTNVGPETY-NH2 (disulfide 2-7; SMILES CC[C@H](C)[C@H](NC(=O)[C@H](C)NC(=O)CNC(=O)[C@H](Cc1ccccc1)NC(=O)[C@H](CC(N)=O)NC(=O)[C@@H]1CCCN1C(=O)[C@H](CO)NC(=O)[C@H](CO)NC(=O)[C@H](Cc1c[nH]cn1)NC(=O)[C@H](CCCNC(=N)N)NC(=O)[C@H](CC(C)C)NC(=O)[C@H](Cc1ccccc1)NC(=O)[C@H](CC(N)=O)NC(=O)[C@H](C)NC(=O)[C@H](CC(C)C)NC(=O)[C@H](CCCNC(=N)N)NC(=O)[C@H](CCC(N)=O)NC(=O)[C@@H](NC(=O)[C@H](C)NC(=O)[C@@H]1CSSC[C@H](NC(=O)[C@H](CCCCN)NC(=O)CC[C@H](NC(=O)CCCCCCCCCCCCCCCCCCC(=O)O)C(=O)O)C(=O)N[C@@H](CC(N)=O)C(=O)N[C@@H]([C@@H](C)O)C(=O)N[C@@H](C)C(=O)N[C@@H]([C@@H](C)O)C(=O)N1)[C@@H](C)O)C(=O)N1CCC[C@H]1C(=O)N[C@@H](CO)C(=O)N[C@@H](CO)C(=O)N[C@H](C(=O)N[C@@H](CC(N)=O)C(=O)N[C@H](C(=O)NCC(=O)N1CCC[C@H]1C(=O)N[C@@H](CCC(=O)O)C(=O)N[C@H](C(=O)N[C@@H](Cc1ccc(O)cc1)C(N)=O)[C@@H](C)O)C(C)C)[C@@H](C)O, modifications are with respect to human amylin; also called compound 29)	13.9	67	21.6 nM	0.322 nM
{C20 diacid-γGlu}-KCNTATCATQRLANFLRHSSPNFGAIPSSTPVGSETY-NH2 (disulfide 2-7; SMILES CC[C@H](C)[C@H](NC(=O)[C@H](C)NC(=O)CNC(=O)[C@H](Cc1ccccc1)NC(=O)[C@H](CC(N)=O)NC(=O)[C@@H]1CCCN1C(=O)[C@H](CO)NC(=O)[C@H](CO)NC(=O)[C@H](Cc1c[nH]cn1)NC(=O)[C@H](CCCNC(=N)N)NC(=O)[C@H](CC(C)C)NC(=O)[C@H](Cc1ccccc1)NC(=O)[C@H](CC(N)=O)NC(=O)[C@H](C)NC(=O)[C@H](CC(C)C)NC(=O)[C@H](CCCNC(=N)N)NC(=O)[C@H](CCC(N)=O)NC(=O)[C@@H](NC(=O)[C@H](C)NC(=O)[C@@H]1CSSC[C@H](NC(=O)[C@H](CCCCN)NC(=O)CC[C@H](NC(=O)CCCCCCCCCCCCCCCCCCC(=O)O)C(=O)O)C(=O)N[C@@H](CC(N)=O)C(=O)N[C@@H]([C@@H](C)O)C(=O)N[C@@H](C)C(=O)N[C@@H]([C@@H](C)O)C(=O)N1)[C@@H](C)O)C(=O)N1CCC[C@H]1C(=O)N[C@@H](CO)C(=O)N[C@@H](CO)C(=O)N[C@H](C(=O)N1CCC[C@H]1C(=O)N[C@H](C(=O)NCC(=O)N[C@@H](CO)C(=O)N[C@@H](CCC(=O)O)C(=O)N[C@H](C(=O)N[C@@H](Cc1ccc(O)cc1)C(N)=O)[C@@H](C)O)C(C)C)[C@@H](C)O, modifications are with respect to human amylin; also called compound 28)	20.5	44.9	54.9 nM	1.22 nM
KCNTATCATQRLANFLRHSSPNFGAIPSSTNVGRNTY (C20 diacid-gGlu on the alpha amino group of the N-terminal residue (Lys 1); disulfide bridge Cys2-Cys7; C-terminal amide, modifications are with respect to human amylin; also called compound 39) [N^α1-[(4S)-4-carboxy-4-(19-carboxynonadecanoylamino)butanoyl]-[Arg17,Pro21,Pro27,Arg34]-h-amylin]	29	54.5	96.4 nM	1.77 nM
KCNTATCATQRLANFLRHSSPNFGAIPSSTNVGSETY (C20 diacid-gGlu on the alpha amino group of the N-terminal residue (Lys 1); disulfide bridge Cys2-Cys7; C-terminal amide, modifications are with respect to human amylin; also called compound 23) [N^α1-[(4S)-4-carboxy-4-(19-carboxynonadecanoylamino)butanoyl]-[Arg17,Pro21,Pro27,Glu35]-h-amylin]	25	71.3	79.9 nM	1.12 nM
